Assay results: paper PMC10278067

Key:
Assay in all cases: SPR; Biacore 8K; original LD3 and mutants immobilised on CM5 chip by amine coupling (500-1000 RU); Bcl-2 injected as analyte in serial 2-fold dilutions (from 2000 or 500 nM); HBS-EP+ pH 7.4, 150 mM NaCl; 1:1 Langmuir fit; three independent experiments
LD3_v3 (D138A) = target: LD3_v3 (D138A)
LD3_v1 (L133A) = target: LD3_v1 (L133A)
LD3_v5 (K144A) = target: LD3_v5 (K144A)
LD3_v2 (I136A) = target: LD3_v2 (I136A)
LD3_v4 (F140A) = target: LD3_v4 (F140A)
Chain of LD3_v4 (F140A) (P02649 other isoform, or with tags, fused parts or gaps F140A): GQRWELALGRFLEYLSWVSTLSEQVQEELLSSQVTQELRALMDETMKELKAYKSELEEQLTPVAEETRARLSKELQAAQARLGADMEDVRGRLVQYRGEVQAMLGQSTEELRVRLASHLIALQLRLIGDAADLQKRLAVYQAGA

Chain of LD3_v1 (L133A) (P02649 other isoform, or with tags, fused parts or gaps L133A): as the sequence (P02649 other isoform, or with tags, fused parts or gaps F140A) above, with L124A, A131F counted along it
Chain of LD3_v2 (I136A) (P02649 other isoform, or with tags, fused parts or gaps I136A): as the sequence (P02649 other isoform, or with tags, fused parts or gaps F140A) above, with I127A, A131F counted along it
Chain of LD3_v5 (K144A) (P02649 other isoform, or with tags, fused parts or gaps K144A): as the sequence (P02649 other isoform, or with tags, fused parts or gaps F140A) above, with A131F, K135A counted along it
Chain of LD3_v3 (D138A) (P02649 other isoform, or with tags, fused parts or gaps D138A): as the sequence (P02649 other isoform, or with tags, fused parts or gaps F140A) above, with D129A, A131F counted along it

What does the source list for “B-cell lymphoma 2 (Bcl-2) protein (from UniProt P10415 1-239) (natural protein)”?
Kd (LD3_v3 (D138A)): 358 nM; koff (LD3_v3 (D138A)): 0.0184 s⁻¹; kon (LD3_v3 (D138A)): 154000 M⁻¹ s⁻¹; Kd (LD3_v1 (L133A)): 65.8 nM; koff (LD3_v1 (L133A)): 0.00263 s⁻¹; kon (LD3_v1 (L133A)): 40800 M⁻¹ s⁻¹; Kd (LD3_v5 (K144A)): 0.46 nM; koff (LD3_v5 (K144A)): 6.6e-05 s⁻¹; kon (LD3_v5 (K144A)): 455000 M⁻¹ s⁻¹; Kd (LD3_v2 (I136A)): 0.74 nM; koff (LD3_v2 (I136A)): 8.9e-05 s⁻¹; kon (LD3_v2 (I136A)): 360000 M⁻¹ s⁻¹; Kd (LD3_v4 (F140A)): 27.3 nM; koff (LD3_v4 (F140A)): 0.00197 s⁻¹; kon (LD3_v4 (F140A)): 240000 M⁻¹ s⁻¹
